Biological target: Aβ oligomers: soluble prefibrillar aggregates of biotinylated Aβ(1–42)
Test: SPR; BIAcore T200, single-cycle kinetics; biotinylated Aβ (11–28 or oligomeric 1–42) captured on streptavidin-coupled CM5 chip (100–200 RU); antibody as analyte 0.8–500 nM in HBS-P pH 7.4, 0.15 M NaCl; one-to-one Langmuir model

Kd: 0.4 to 0.6 nM
Substance: Crenezumab, fully humanized anti-Aβ monoclonal IgG4 (antibody)

Source: article PMC5171940
